# Results as given in article PMC4253547 (Leukemia research, 2014).
# Positions count from the first letter of the chain named. Numbers in names are those of the source. Where no end group is shown, it is not given here.
# T1: MBP-AF9 (WT) (UniProt P42568 1-568)
# T1 sequence (looked up): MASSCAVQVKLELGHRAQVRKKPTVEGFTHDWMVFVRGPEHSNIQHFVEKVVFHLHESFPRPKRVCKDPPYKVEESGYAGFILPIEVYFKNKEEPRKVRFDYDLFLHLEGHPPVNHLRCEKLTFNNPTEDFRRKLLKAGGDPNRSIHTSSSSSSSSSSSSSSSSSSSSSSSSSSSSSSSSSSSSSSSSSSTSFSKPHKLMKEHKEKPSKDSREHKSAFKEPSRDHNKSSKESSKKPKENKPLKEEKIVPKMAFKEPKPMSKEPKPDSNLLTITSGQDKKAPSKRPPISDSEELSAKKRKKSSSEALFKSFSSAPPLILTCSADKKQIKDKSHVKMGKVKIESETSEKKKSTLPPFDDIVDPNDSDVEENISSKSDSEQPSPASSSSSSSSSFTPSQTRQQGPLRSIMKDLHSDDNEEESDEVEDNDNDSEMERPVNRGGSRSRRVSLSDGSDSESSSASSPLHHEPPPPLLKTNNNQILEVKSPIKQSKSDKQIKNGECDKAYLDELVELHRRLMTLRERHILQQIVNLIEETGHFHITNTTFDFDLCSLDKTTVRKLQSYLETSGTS
# T2: MBP-AF9 (D544R) (UniProt P42568 1-568, D544R)
# T2 sequence (looked up): T1 sequence (looked up) with D544R
# Key:
# MLLT3 (Homo sapiens) = MLLT3 (Homo sapiens) (UniProt P42568); conditions: cited from earlier work
# MBP-AF9 (WT) = biological target: T1, MBP-AF9 (WT); experiment: other fluorescence titration
# MBP-AF9 (D544R) = biological target: T2, MBP-AF9 (D544R); experiment: other fluorescence titration
# Sequence of AFF1 (P51825 whole entry): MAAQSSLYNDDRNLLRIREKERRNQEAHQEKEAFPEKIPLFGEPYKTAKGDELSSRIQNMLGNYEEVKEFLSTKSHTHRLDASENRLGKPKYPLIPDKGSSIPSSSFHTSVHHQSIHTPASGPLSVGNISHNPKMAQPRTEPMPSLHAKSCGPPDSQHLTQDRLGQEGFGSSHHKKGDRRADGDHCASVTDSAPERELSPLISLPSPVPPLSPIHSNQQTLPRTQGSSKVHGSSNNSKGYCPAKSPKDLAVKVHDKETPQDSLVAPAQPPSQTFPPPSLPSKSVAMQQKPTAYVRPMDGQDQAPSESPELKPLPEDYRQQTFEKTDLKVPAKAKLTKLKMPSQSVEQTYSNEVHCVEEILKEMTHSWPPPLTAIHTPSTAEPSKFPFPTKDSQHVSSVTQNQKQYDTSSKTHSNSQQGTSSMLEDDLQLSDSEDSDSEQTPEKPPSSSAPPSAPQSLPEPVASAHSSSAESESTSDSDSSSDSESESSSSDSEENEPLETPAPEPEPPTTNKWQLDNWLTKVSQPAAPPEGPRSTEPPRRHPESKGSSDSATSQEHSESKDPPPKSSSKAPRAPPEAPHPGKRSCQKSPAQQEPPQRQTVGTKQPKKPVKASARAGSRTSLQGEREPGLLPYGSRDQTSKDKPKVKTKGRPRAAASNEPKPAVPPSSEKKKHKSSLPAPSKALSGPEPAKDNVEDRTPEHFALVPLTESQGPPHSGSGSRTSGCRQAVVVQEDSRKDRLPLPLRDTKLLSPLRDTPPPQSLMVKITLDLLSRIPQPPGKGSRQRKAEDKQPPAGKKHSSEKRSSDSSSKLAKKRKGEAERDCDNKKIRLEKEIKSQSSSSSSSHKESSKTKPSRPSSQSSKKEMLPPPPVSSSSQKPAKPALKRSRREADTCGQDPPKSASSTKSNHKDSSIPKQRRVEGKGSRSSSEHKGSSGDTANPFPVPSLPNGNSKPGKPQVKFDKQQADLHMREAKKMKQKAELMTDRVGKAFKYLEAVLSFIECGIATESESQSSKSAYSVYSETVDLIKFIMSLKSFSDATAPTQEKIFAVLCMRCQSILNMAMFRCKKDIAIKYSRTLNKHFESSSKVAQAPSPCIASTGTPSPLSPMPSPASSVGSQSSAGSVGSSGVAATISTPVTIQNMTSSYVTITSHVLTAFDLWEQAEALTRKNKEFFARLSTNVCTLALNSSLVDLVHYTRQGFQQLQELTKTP
Kd (MBP-AF9 (WT)),Kd (MBP-AF9 (D544R)),Molecule,Kd (MLLT3 (Homo sapiens))
–,–,AFF1 (from UniProt P51825),0.17 nM
0.2 nM,–,LIVKIDLNLLTRIP (also: fluorescein (position not given here)) [Fluorescein AFF4 (WT) peptide],–
37.4 nM,0.21 nM,LIVDIDLNLLTRIP (also: fluorescein (position not given here)) [Fluorescein AFF4 (K717D) peptide],–
